Data set [1] relates to HeLa Kyoto. Briefly: thermal stability score vs G1/S (z-score of summed log2 fold changes over temperatures); higher = more thermally stable than in G1/S.
In data set [2] the test system is HeLa Kyoto. In words: solubility change mitosis vs G1/S (difference of NP-40 vs SDS log2 ratios) (log2 ratio difference); higher = more soluble in mitosis.
Data set [3] concerns HeLa Kyoto. In words: solubility in G1/S (NP-40 vs SDS abundance) (log2 ratio); higher = more soluble. Conditions: cell cycle stage: G1/S.
Data set [4] deals with HeLa Kyoto. Briefly: melting temperature (median over replicates), in situ; higher = more thermally stable.
The mark [5] stands for this setting: cell cycle stage: early G1 (4.5 h after nocodazole release).
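Wherever melting temperature (median over replicates), in situ is given: HeLa Kyoto cells synchronized by double thymidine or nocodazole block, proteins quantified by TMT10plex mass spectrometry, three independent biological replicates.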
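Wherever solubility change mitosis vs G1/S (difference of NP-40 vs SDS log2 ratios) is given: synchronized HeLa Kyoto cells (double thymidine block for G1/S, nocodazole release for mitosis), protein amounts in NP-40 versus SDS lysates quantified by mass spectrometry, three biological replicates.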
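Wherever solubility in G1/S (NP-40 vs SDS abundance) is given: HeLa Kyoto cells arrested at G1/S by double thymidine block, proteins quantified by TMT10plex mass spectrometry in mild NP-40 versus SDS extracts, three biological replicates.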
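Wherever thermal stability score vs G1/S (z-score of summed log2 fold changes over temperatures) is given: synchronized HeLa Kyoto cells, proteins quantified by TMT10plex mass spectrometry, three biological replicates, mitosis taken 0.5 h after nocodazole release, G1/S directly after double thymidine block.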

On to “MAEGSAVSDPQHAARLLRALSSFREESRFCDAHLVLDGEEIPVQKNILAAASPYIRTKLNYNPPKDDGSTYKIELEGISVMVMREILDYIFSGQIRLNEDTIQDVVQAADLLLLTDLKTLCCEFLEGCIAAENCIGIRDFALHYCLHHVHYLATEYLETHFRDVSSTEEFLELSPQKLKEVISLEKLNVGNERYVFEAVIRWIAHDTEIRKVHMKDVMSALWVSGLDSSYLREQMLNEPLVREIVKECSNIPLSQPQQGEAMLANFKPRGYSECIVTVGGEERVSRKPTAAMRCMCPLYDPNRQLWIELAPLSMPRINHGVLSAEGFLFVFGGQDENKQTLSSGEKYDPDANTWTALPPMNEARHNFGIVEIDGMLYILGGEDGEKELISMECYDIYSKTWTKQPDLTMVRKIGCYAAMKKKIYAMGGGSYGKLFESVECYDPRTQQWTAICPLKERRFGAVACGVAMELYVFGGVRSREDAQGSEMVTCKSEFYHDEFKRWIYLNDQNLCIPASSSFVYGAVPIGASIYVIGDLDTGTNYDYVREFKRSTGTWHHTKPLLPSDLRRTGCAALRIANCKLFRLQLQQGLFRIRVHSP [GAN]”, for which the thermal stability score with HeLa Kyoto [1] (setting [5]) was -0.83; in the data set on HeLa Kyoto [1] (cell cycle stage: mitosis), -2.48. Further, the “solubility change mitosis (log2)” value in the data set with HeLa Kyoto [2] is -0.271. In the data set on HeLa Kyoto [3], the “solubility in G1/S (log2)” value is -0.0081. In addition, the melting temperature came to 51.6 °C in the data set on HeLa Kyoto [4] (cell cycle stage: G1/S) and 48.7 °C in the data set with HeLa Kyoto [4] (cell cycle stage: mitosis).

With “MAEGSGEVVAVSATGAANGLNNGAGGTSATTCNPLSRKLHKILETRLDNDKEMLEALKALSTFFVENSLRTRRNLRGDIERKSLAINEEFVSIFKEVKEELESISEDVQAMSNCCQDMTSRLQAAKEQTQDLIVKTTKLQSESQKLEIRAQVADAFLSKFQLTSDEMSLLRGTREGPITEDFFKALGRVKQIHNDVKVLLRTNQQTAGLEIMEQMALLQETAYERLYRWAQSECRTLTQESCDVSPVLTQAMEALQDRPVLYKYTLDEFGTARRSTVVRGFIDALTRGGPGGTPRPIEMHSHDPLRYVGDMLAWLHQATASEKEHLEALLKHVTTQGVEENIQEVVGHITEGVCRPLKVRIEQVIVAEPGAVLLYKISNLLKFYHHTISGIVGNSATALLTTIEEMHLLSKKIFFNSLSLHASKLMDKVELPPPDLGPSSALNQTLMLLREVLASHDSSVVPLDARQADFVQVLSCVLDPLLQMCTVSASNLGTADMATFMVNSLYMMKTTLALFEFTDRRLEMLQFQIEAHLDTLINEQASYVLTRVGLSYIYNTVQQHKPEQGSLANMPNLDSVTLKAAMVQFDRYLSAPDNLLIPQLNFLLSATVKEQIVKQSTELVCRAYGEVYAAVMNPINEYKDPENILHRSPQQVQTLLS [COG6]”, the values for the thermal stability score in the data set on HeLa Kyoto [1] (setting [5]) and in the data set with HeLa Kyoto [1] (cell cycle stage: mitosis) were 0.0299 and 0.655, respectively. Further, the “solubility change mitosis (log2)” value with HeLa Kyoto [2] was -0.0596. In addition, the “solubility in G1/S (log2)” value with HeLa Kyoto [3] was determined as 0.289. Moreover, the melting temperature in the data set on HeLa Kyoto [4] (cell cycle stage: G1/S) came out at 48.6 °C; in the data set with HeLa Kyoto [4] (cell cycle stage: mitosis), 49.3 °C.

For the sequence “MAEKFDCHYCRDPLQGKKYVQKDGHHCCLKCFDKFCANTCVECRKPIGADSKEVHYKNRFWHDTCFRCAKCLHPLANETFVAKDNKILCNKCTTREDSPKCKGCFKAIVAGDQNVEYKGTVWHKDCFTCSNCKQVIGTGSFFPKGEDFYCVTCHETKFAKHCVKCNKAITSGGITYQDQPWHADCFVCVTCSKKLAGQRFTAVEDQYYCVDCYKNFVAKKCAGCKNPITGKRTVSRVSHPVSKARKPPVCHGKRLPLTLFPSANLRGRHPGGERTCPSWVVVLYRKNRSLAAPRGPGLVKAPVWWPMKDNPGTTTASTAKNAP [FHL1]”, the thermal stability score was 0.0455 in the data set on HeLa Kyoto [1] (setting [5]) and -3.17 in the data set on HeLa Kyoto [1] (cell cycle stage: mitosis). In addition, the “solubility change mitosis (log2)” value in the data set with HeLa Kyoto [2] is -0.0498. Moreover, the “solubility in G1/S (log2)” value with HeLa Kyoto [3] was -0.37. Further, the values for the melting temperature in the data set on HeLa Kyoto [4] (cell cycle stage: G1/S) and with HeLa Kyoto [4] (cell cycle stage: mitosis) were 56.4 °C and 58.5 °C, respectively.

Regarding “MAELDIGQHCQVEHCRQRDFLPFVCDDCSGIFCLEHRSRESHGCPEVTVINERLKTDQHTSYPCSFKDCAERELVAVICPYCEKNFCLRHRHQSDHECEKLEIPKPRMAATQKLVKDIIDSKTGETASKRWKGAKNSETAAKVALMKLKMHADGDKSLPQTERIYFQVFLPKGSKEKSKPMFFCHRWSIGKAIDFAASLARLKNDNNKFTAKKLRLCHITSGEALPLDHTLETWIAKEDCPLYNGGNIILEYLNDEEQFCKNVESYLE [ZFAND1]”, the thermal stability score in the data set on HeLa Kyoto [1] (setting [5]) is -0.0516; with HeLa Kyoto [1] (cell cycle stage: mitosis), 1.54. In the data set with HeLa Kyoto [2], the “solubility change mitosis (log2)” value is -0.173. The “solubility in G1/S (log2)” value with HeLa Kyoto [3] came to 0.496. In addition, the melting temperature with HeLa Kyoto [4] (cell cycle stage: G1/S) stood at 50.6 °C; with HeLa Kyoto [4] (cell cycle stage: mitosis) it was 49.9 °C.

On to “MAELTALESLIEMGFPRGRAEKALALTGNQGIEAAMDWLMEHEDDPDVDEPLETPLGHILGREPTSSEQGGLEGSGSAAGEGKPALSEEERQEQTKRMLELVAQKQREREEREEREALERERQRRRQGQELSAARQRLQEDEMRRAAEERRREKAEELAARQRVREKIERDKAERAKKYGGSVGSQPPPVAPEPGPVPSSPSQEPPTKREYDQCRIQVRLPDGTSLTQTFRAREQLAAVRLYVELHRGEELGGGQDPVQLLSGFPRRAFSEADMERPLQELGLVPSAVLIVAKKCPS [UBXN1]”, for which the thermal stability score is -1.73 in the data set on HeLa Kyoto [1] (setting [5]) and -2.31 with HeLa Kyoto [1] (cell cycle stage: mitosis). Besides, the “solubility change mitosis (log2)” value with HeLa Kyoto [2] turned out to be 0.313. Also, in the data set on HeLa Kyoto [3], the “solubility in G1/S (log2)” value stood at 0.608. In addition, the melting temperature came to 52.1 °C in the data set with HeLa Kyoto [4] (cell cycle stage: G1/S) and 51.3 °C with HeLa Kyoto [4] (cell cycle stage: mitosis).

For “MAEPFLSEYQHQPQTSNCTGAAAVQEELNPERPPGAEERVPEEDSRWQSRAFPQLGGRPGPEGEGSLESQPPPLQTQACPESSCLREGEKGQNGDDSSAGGDFPPPAEVEPTPEAELLAQPCHDSEASKLGAPAAGGEEEWGQQQRQLGKKKHRRRPSKKKRHWKPYYKLTWEEKKKFDEKQSLRASRIRAEMFAKGQPVAPYNTTQFLMDDHDQEEPDLKTGLYSKRAAAKSDDTSDDDFMEEGGEEDGGSDGMGGDGSEFLQRDFSETYERYHTESLQNMSKQELIKEYLELEKCLSRMEDENNRLRLESKRLGGDDARVRELELELDRLRAENLQLLTENELHRQQERAPLSKFGD [HEXIM1]”, the thermal stability score with HeLa Kyoto [1] (setting [5]) was -4.2; with HeLa Kyoto [1] (cell cycle stage: mitosis), -2.03. For the same sequence, the “solubility change mitosis (log2)” value with HeLa Kyoto [2] turned out to be 0.123. Further, the “solubility in G1/S (log2)” value with HeLa Kyoto [3] was 0.211. Moreover, the melting temperature was determined as 57.6 °C in the data set on HeLa Kyoto [4] (cell cycle stage: G1/S) and 55.5 °C in the data set on HeLa Kyoto [4] (cell cycle stage: mitosis).

Source of the values: the supplement of paper PMC5998384.
